According to article PMC2270275, “Thermal dependency of RAG1 self-association properties” (BMC Biochemistry, 2008):

Biological target: the molecule itself
Assay: SEC-MALS; MALLS-SEC of purified GST-core RAG2 (0.01-0.03 mg), kept at 4°C before SEC; Superdex 200; 25 mM Tris pH 8.0, 150 mM KCl, 2 mM dithiothreitol; 40-200 nM in Peak 2

B1: GST-core RAG2 (domain or fragment, UniProt P21784 1-387, looked up)
chain: MSLQMVTVGHNIALIQPGFSLMNFDGQVFFFGQKGWPKRSCPTGVFHFDIKQNHLKLKPAIFSKDSCYLPPLRYPATCSYKGSIDSDKHQYIIHGGKTPNNELSDKIYIMSVACKNNKKVTFRCTEKDLVGDVPEPRYGHSIDVVYSRGKSMGVLFGGRSYMPSTQRTTEKWNSVADCLPHVFLIDFEFGCATSYILPELQDGLSFHVSIARNDTVYILGGHSLASNIRPANLYRIRVDLPLGTPAVNCTVLPGGISVSSAILTQTNNDEFVIVGGYQLENQKRMVCSLVSLGDNTIEISEMETPDWTSDIKHSKIWFGSNMGNGTIFLGIPGDNKQAMSEAFYFYTLRCSEEDLSEDQKIVSNSQTSTEDPGDSTPFEDSEEFCFS
notes: RAG2 core region; core RAG2 portion printed as 42.6 kDa; Predicted monomer mass 68.9 kDa; The authors put the dimeric state down to the GST moiety, which is known to dimerize; also called core RAG2 fused to glutathione S-transferase; GST-RAG2
  stoichiometry N: 2
